# Measurements published in patent US9156883B2, “Binding molecules for human factor VIII and factor VIII-like proteins” (DYAX CORP., priority 1999, dated 2015).
# Positions of bridges follow the written chain, without caps; N, C: chain ends. No end group written: not given here. *: point of attachment. NHNH2 = NN*
# Biological target: T1, REFACTO® (Homo sapiens, UniProt P00451)
# T1 construct: amino acids 1-743 and 1638 through 2332 of human factor VIII; purchased Genetics Institute, Inc. (Cambridge, Mass.)
# T1 sequence (P00451 20-762): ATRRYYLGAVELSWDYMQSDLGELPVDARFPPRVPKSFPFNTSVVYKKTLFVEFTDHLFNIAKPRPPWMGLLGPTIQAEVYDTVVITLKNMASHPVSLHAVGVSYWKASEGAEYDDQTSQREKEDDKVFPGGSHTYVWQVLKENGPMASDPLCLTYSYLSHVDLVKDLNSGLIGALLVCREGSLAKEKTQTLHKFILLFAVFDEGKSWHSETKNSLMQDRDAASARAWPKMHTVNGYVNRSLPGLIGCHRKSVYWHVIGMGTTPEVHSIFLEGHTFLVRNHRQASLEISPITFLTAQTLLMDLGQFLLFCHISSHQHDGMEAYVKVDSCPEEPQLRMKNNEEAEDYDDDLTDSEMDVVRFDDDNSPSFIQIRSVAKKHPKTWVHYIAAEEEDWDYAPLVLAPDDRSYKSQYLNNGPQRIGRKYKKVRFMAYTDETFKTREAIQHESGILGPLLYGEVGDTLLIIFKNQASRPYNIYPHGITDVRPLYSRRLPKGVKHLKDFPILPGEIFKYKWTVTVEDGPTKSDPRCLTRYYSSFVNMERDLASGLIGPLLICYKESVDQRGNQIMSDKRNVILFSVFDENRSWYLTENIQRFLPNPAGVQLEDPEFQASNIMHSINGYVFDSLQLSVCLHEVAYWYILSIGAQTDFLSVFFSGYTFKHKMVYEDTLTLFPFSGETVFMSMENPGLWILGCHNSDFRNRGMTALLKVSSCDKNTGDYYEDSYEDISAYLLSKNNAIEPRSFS
# T1 sequence (P00451 1657-2351): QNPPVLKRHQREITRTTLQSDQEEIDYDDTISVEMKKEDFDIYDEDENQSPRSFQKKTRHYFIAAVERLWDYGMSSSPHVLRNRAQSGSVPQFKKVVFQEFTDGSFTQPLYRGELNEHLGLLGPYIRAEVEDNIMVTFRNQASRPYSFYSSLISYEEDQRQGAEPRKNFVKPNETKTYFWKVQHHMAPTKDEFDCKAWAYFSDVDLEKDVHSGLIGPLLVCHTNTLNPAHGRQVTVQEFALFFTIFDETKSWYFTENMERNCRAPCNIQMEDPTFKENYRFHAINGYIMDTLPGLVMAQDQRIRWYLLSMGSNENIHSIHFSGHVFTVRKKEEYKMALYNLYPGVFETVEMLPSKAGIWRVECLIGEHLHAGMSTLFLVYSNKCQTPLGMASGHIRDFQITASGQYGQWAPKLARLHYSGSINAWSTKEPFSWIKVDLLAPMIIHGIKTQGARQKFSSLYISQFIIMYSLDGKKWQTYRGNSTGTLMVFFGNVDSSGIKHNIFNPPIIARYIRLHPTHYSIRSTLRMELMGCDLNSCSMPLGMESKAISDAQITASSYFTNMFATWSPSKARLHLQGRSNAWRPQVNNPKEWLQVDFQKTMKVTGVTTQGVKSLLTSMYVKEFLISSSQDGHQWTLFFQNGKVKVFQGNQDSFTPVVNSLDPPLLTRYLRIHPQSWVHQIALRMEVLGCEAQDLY
# Test: Batch binding and elution of REFACTO® with immobilized polypeptide ligands (factor VIII sandwich ELISA)
# Settings: for % of Input Recovered in: Eluate: Buffer A, 50% ethylene glycol, pH 6.3, 15 minutes; for % of Input Recovered in: Unbound: REFACTO® ~50 U in Buffer 1, 1 h RT, supernatant after binding; for % of Input Recovered in: Total: Unbound, Wash and Eluate fractions together; for % of Input Recovered in: Wash: one wash with Buffer 1
# Description: A commercial ELISA kit (IMUBIND fVIII ELISA kit, Product #884, American, Inc., Greenwich, Conn.) developed to detect factor VIII was used according to the manufacturer's specifications in order to detect both the REFACTO® and the nhfVIII targets. The kit employs a sandwich ELISA assay in which the target is captured by an immobilized monoclonal antibody and the captured target is detected with a second monoclonal antibody-horseradish peroxidase (HRP) conjugate. Addition of the peroxidase substrate and its subsequent reaction with the HRP produces a blue color (detected at 630 nm) which changes to yellow (detected at 450 nm) on addition of the 0.5N sulfuric acid stop solution. Color response is calibrated with factor VIII standards provided by the manufacturer.
# REFACTO® binding was tested in Buffer 1. The binding of both REFACTO® and nfhVIII were tested using three affinity resins prepared as in Example II, using the affinity peptides CS-454, CS-456, and CS-458 immobilized on Toyopearl Formyl 650-M medium. Ligand density for each polypeptide was 1.79 mg/ml (0.67 μmol/ml), 3.69 mg/ml ([…]) and 3.15 mg/ml (1.17 μmol/ml) respectively.
# For each of the three immobilized peptides tested, peptide-beads from […] of a 50% slurry of Toyopearl-coupled polypeptide suspension were centrifuged briefly (30 seconds at 2000×g at room temperature), the supernatant fluid was removed, and the beads (pellets) were washed two times. For each wash, the beads were resuspended in 500 μl of Buffer 1 and centrifuged as before.
# The stock solution of REFACTO® was diluted to a final concentration of 200 U/ml in Buffer 1 and 250 μl of the diluted solution (˜50 U total) was added to a washed pellet of each of the peptide-beads. The suspension was incubated on an end-over-end mixer at RT for one hour, after which binding period the beads were pelleted by centrifugation (30 seconds, 2000×g) and the supernatant solutions, representing the unbound fraction (“Unbound” in Table 7, below), were removed and retained for assay of unbound factor VIII activity.
# The pelleted beads were washed one time by adding 250 μl of Buffer 1, mixed briefly and the suspension centrifuged as before. The supernatant solutions (“Wash” in Table 7) were removed and retained for assay of factor VIII activity.
# The washed pellets were resuspended in 250 μl of Buffer A (20 mM L-Histidine-HCl, 250 mM NaCl, 20 mM CaCl2, 0.01% Tween 80, 50% ethylene glycol, pH 6.3) and incubated on an end-over-end mixer for 15 minutes at room temperature. At the end of the elution period, the suspensions were centrifuged as above. The supernatant solutions (“Eluate” in Table 7) were removed and retained for assay of eluted factor VIII activity.
# The starting (diluted) REFACTO® solution (Input) and each sample (Unbound, Wash, and Eluate) taken as described above were diluted 1:1400 in Assay Diluent (provided with kit), then subjected to ELISA using the commercial factor VIII assay kit.
% of Input Recovered in: Eluate [%],% of Input Recovered in: Unbound [%],% of Input Recovered in: Total [%],Substance,% of Input Recovered in: Wash [%]
47,20,76,AEGTGDFCWVFAFDHCHDPGPEGGGS-NHNH2 (disulfide 8-16 (inferred)) [CS-458],10
49,24,85,AEGTGDHLCGAWFRPCDADPGPEGGGS-NHNH2 (disulfide 9-16 (inferred)) [CS-454],–

Substance,% of Input Recovered in: Eluate [%],% of Input Recovered in: Unbound [%],% of Input Recovered in: Total [%],% of Input Recovered in: Wash [%]
AEGTGDFGCSWLFPCPFDPGPEGGGS-NHNH2 (disulfide 9-15 (inferred)) [CS-456],24,47,91,20
